# Target: Du156.12
# Assay: ELISA
row,Substance,EC50
1,VRC01 Heavy chain: A56G,0.101 mg/L
2,VRC01 Heavy chain: I30T,0.063 mg/L
3,VRC01 Heavy chain: K52N,0.056 mg/L
4,VRC01 Heavy chain: P62K,0.066 mg/L
5,VRC01 Heavy chain: R53N,0.063 mg/L
6,VRC01 Heavy chain: R61Q,0.086 mg/L
7,VRC01 Heavy chain: T33Y,0.048 mg/L
8,VRC01 Heavy chain: V57T,0.164 mg/L
9,VRC01 Heavy chain: V73T,0.097 mg/L
10,VRC01 Heavy chain: Y74S,0.071 mg/L
11,VRC01 Light chain: Y30S,0.196 mg/L

# Target: Du156.12
# Assay: ELISA; deglycosylated
row,Substance,EC50
1,Deglycosylated VRC01,0.05 mg/L

# Target: HXBc2
# Assay: ELISA; deglycosylated
row,Substance,EC50
1,Deglycosylated VRC01,0.045 mg/L

# — patent US20160009789A1
